Laboratory results from US20150011730A1 (UNIVERSITY OF SOUTH CAROLINA, published 2015).
Where two headings read alike, the source gives them in different places. Non-standard residues stand in square brackets, D forms with d. No end group written: not given here. *: point of attachment. X1 = 1‑(3,5-dichlorophenyl)‑5‑methyl‑1H‑1,2,4‑triazole‑3‑carbonyl, Cc1nc(C(=O)*)nn1-c1cc(Cl)cc(Cl)c1; Pyrazole N‑cap (R1 OCH3, R2 H, R3 H, R4 CH3, W N, X N, Y C, Z C) = not defined here; Pyrazole N‑cap (R1 Cl, R2 H, R3 Cl, R4 CH3, W N, X N, Y C, Z C) = not defined here; Pyrazole N‑cap (R1 Cl, R2 H, R3 H, R4 CH3, W N, X N, Y C, Z C) = not defined here; Pyrazole N‑cap (R1 F, R2 H, R3 H, R4 CH3, W N, X N, Y C, Z C) = not defined here; Pyrazole N‑cap (R1 H, R2 H, R3 H, R4 CH3, W N, X N, Y C, Z C) = not defined here; benzoic acid Scaffold III (R1 H, R2 CHEM-US-00025 C6H13NO) = not defined here; benzoic acid Scaffold III (R1 H, R2 CHEM-US-00026 C5H12N2) = not defined here; 3‑phenoxybenzylamide = c1ccc(Oc2cccc(CN*)c2)cc1; Ala(2-furyl) = N[C@@H](Cc1ccco1)C(=O)O; Cha = N[C@@H](CC1CCCCC1)C(=O)O; β3hL = CC(C)C[C@H](N)CC(=O)O

Assays:
[1] = target: T1, CDK4/cyclin D1 (as used in the binding assay) (UniProt P11802 1-303; P24385 1-295)
T1 construct: kept apart from the GST-tagged kinase-assay complex m2; also called CDK4/D1
T1 sequence (P11802 whole entry, chain 1 of 2): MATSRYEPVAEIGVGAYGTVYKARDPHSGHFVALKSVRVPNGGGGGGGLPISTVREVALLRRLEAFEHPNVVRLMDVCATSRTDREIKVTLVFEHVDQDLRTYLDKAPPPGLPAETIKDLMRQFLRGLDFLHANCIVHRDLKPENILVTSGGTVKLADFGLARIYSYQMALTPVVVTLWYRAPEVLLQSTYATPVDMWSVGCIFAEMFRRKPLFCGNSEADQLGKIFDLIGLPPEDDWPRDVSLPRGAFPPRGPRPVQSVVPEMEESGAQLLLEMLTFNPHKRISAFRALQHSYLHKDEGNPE
T1 sequence (P24385 whole entry, chain 2 of 2): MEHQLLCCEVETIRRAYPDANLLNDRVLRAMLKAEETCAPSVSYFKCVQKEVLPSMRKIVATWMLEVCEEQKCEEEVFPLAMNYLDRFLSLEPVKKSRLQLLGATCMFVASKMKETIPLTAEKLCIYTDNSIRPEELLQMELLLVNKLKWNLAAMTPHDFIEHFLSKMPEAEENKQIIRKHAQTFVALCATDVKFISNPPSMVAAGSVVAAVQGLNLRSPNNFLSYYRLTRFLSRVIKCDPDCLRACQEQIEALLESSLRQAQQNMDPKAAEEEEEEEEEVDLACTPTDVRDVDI

[2] = target: T1, CDK4/cyclin D1 (as used in the binding …); remark: listed apart in the source
[3] = target: T2, CDK2/cyclin A (as used in the binding assay) (UniProt P24941 1-298; P20248 1-432); assay: FP binding assay
[4] = target: T3, CDK4/Cyclin D1, full-length recombinant, N-terminal GST tag on both proteins (UniProt P11802 2-303; P24385 1-295); assay: cell-based or functional assay
T3 sequence (P11802 2-303, chain 1 of 2): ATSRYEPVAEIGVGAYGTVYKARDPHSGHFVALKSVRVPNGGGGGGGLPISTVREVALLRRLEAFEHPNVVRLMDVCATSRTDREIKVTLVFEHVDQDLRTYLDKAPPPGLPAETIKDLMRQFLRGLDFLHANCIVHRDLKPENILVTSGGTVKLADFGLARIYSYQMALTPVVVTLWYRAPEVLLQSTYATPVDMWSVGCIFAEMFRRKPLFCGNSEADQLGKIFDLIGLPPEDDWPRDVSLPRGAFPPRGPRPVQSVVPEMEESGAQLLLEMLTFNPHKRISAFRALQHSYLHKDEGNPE
T3 sequence (P24385 whole entry, chain 2 of 2): as the sequence (P24385 whole entry, chain 2 of 2) above

[5] = target: T1, CDK4/cyclin D1 (as used in the binding …); assay: FP binding assay
[6] = target: T2, CDK2/cyclin A (as used in the binding …); assay: binding assay
[7] = target: T4, CDK2/Cyclin A2, full-length recombinant, N-terminal GST tag on both proteins (UniProt P24941 1-298; P20248 1-432); assay: cell-based or functional assay
[8] = target: T4, CDK2/Cyclin A2, full-length …; assay: cell-based or functional assay; remark: listed apart in the source
[9] = target: T2, CDK2/cyclin A (as used in the binding …)
[10] = target: CDK2/E (UniProt P24941 1-298; P24864 1-410); assay: cell-based or functional assay
[11] = target: T3, CDK4/Cyclin D1, full-length …; assay: cell-based or functional assay; remark: listed apart in the source

RRLNF (pfF at position 5 = p-fluorophenylalanine; C-terminal amide, also called SCCP 540) [RRLNpfF]
IC50 [1]: 8 µM

{benzoic acid Scaffold III (R1 H, R2 CHEM-US-00025 C6H13NO)}-RLIF (not fully specified (C-terminus); reading uncertain) [SCCP 5851 (benzoic acid N-cap-RLIF)]
fold enhancement of activity vs unsubstituted benzoic acid [2]: 26 fold

{Pyrazole N‑cap (R1 OCH3, R2 H, R3 H, R4 CH3, W N, X N, Y C, Z C)}-RLIF (reading uncertain; also: cap structure given only by scaffold parameters) [SCCP 5766 (Pyrazole N-cap ligated to RLIF)]
IC50 [3]: 64.1 µM

XRLIF (Cit at position 1 = citrulline; C-terminal amide, also called SCCP 5812) [CitRLIF]
IC50 [1]: 72.3 µM | IC50, kinase assay [4]: 179 µM

{Triazole N‑cap (R1 H, R2 H, R3 H, R4 H, W N, X N, Y N, Z C)}-RLIF (also: cap structure given only by scaffold parameters) [SCCP 5843 (Triazole N-cap ligated to RLIF)]
IC50 [5]: 48.7 µM | IC50 [3]: 16.2 µM

{Pyrazole N‑cap (R1 H, R2 H, R3 H, R4 CH3, W N, X N, Y C, Z C)}-RLIF (reading uncertain; also: cap structure given only by scaffold parameters) [SCCP 5762 (Pyrazole N-cap ligated to RLIF)]
IC50 [5]: 53.8 µM

{Pyrazole N‑cap (R1 Cl, R2 H, R3 H, R4 CH3, W N, X N, Y C, Z C)}-RLIF (reading uncertain; also: cap structure given only by scaffold parameters) [SCCP 5764 (Pyrazole N-cap ligated to RLIF)]
IC50 [5]: 45 µM | IC50 [3]: 11.9 µM

B1: SCCP 5774 (Triazole N-cap ligated to RLIF) (peptide)
peptide: {Triazole N‑cap, 4‑chlorophenyl triazole (R1 H, R2 Cl, R3 H, R4 CH3, W N, X N, Y N, Z C)}-RLIF
modifications: also: cap structure given only by scaffold parameters
notes: also called 4-chlorophenyl triazole; 4-chloro phenyl triazole
IC50 [5]: 11.3 µM | IC50 [3]: 11.5 µM | IC50 [6]: 25 µM

RXLIF (Cit at position 2 = citrulline; C-terminal amide, also called SCCP 5831) [RCitLIF]
IC50 [1]: 46.5 µM

{Pyrazole N‑cap (R1 F, R2 H, R3 H, R4 CH3, W N, X N, Y C, Z C)}-RLIF (reading uncertain; also: cap structure given only by scaffold parameters) [SCCP 5771 (Pyrazole N-cap ligated to RLIF)]
IC50 [5]: 69.6 µM | IC50 [3]: 29.6 µM

SAKRALFGM-NH2
IC50, kinase assay [4]: 68 µM

PAKRRLFG-NH2
IC50, kinase assay [4]: 6.7 µM

HAKRRLI[2‑thienylalanine]-NH2 [HAKRRLIX2]
IC50, kinase assay [7]: 3.6 µM

Arg-Arg-[β3hL]-{3‑phenoxybenzylamide} [Arg-Arg-β-homoleucyl-3-phenoxybenzylamid]
IC50, kinase assay [4]: 60 µM | Potency ratio [4]: 20.7 ratio | IC50, kinase assay [8]: > 100 µM

RKLIF (dimethyllysine at position 2 (lysine with the epsilon amino group methylated), also called SCCP 5918) [R(dimethyllys)LIF]
IC50 [1]: 72.2 µM | IC50 [9]: 5400 nM

B2: SAKRR{bLeu}3TAG-OH (peptide)
peptide: SAKRRLAG
HELM: PEPTIDE1{S.A.K.R.R.[CC(C)C[C@@H](CC(=O)[*:2])N[*:1]].[O=C([C@H](Cc1ccsc1)N[*:1])[*:2]].G}$$$$V2.0; N-terminus assumed
SMILES: CC(C)C[C@@H](CC(=O)N[C@@H](Cc1ccsc1)C(=O)NCC(=O)O)NC(=O)[C@H](CCCNC(=N)N)NC(=O)[C@H](CCCNC(=N)N)NC(=O)[C@H](CCCCN)NC(=O)[C@H](C)NC(=O)[C@@H](N)CO
notes: C-terminal free acid (-OH); also called SCCP 5813
IC50 [9]: 310 nM

{Pyrazole N‑cap (R1 Cl, R2 H, R3 Cl, R4 CH3, W N, X N, Y C, Z C)}-RLIF (reading uncertain; also: cap structure given only by scaffold parameters) [SCCP 5763 (Pyrazole N-cap ligated to RLIF)]
IC50 [3]: 21.8 µM

SAKRNLFGM-NH2
IC50, kinase assay [4]: 146 µM

B3: 1-(3,5-dichlorophenyl)-5-methyl-1H-1,2,4-triazole-3-carbonyl-RLIF (peptide)
peptide: X1-RLIF
notes: also called SCCP 5773; 3,5-dichlorophenyl triazole
IC50 [5]: 27 µM | IC50 [3]: 4 µM | IC50 [6]: 12 µM

HAKTRLIF-NH2
IC50, kinase assay [4]: 25 µM | Potency ratio vs native HAKRRLIF [4]: 16.7 ratio | IC50, kinase assay [8]: 50 µM | Potency ratio vs native HAKRRLIF [8]: 38.5 ratio

HAKRRLI[Ala(2-furyl)]-NH2 [HAKRRLIX1]
IC50, kinase assay [10]: 1.3 µM | IC50, kinase assay [7]: 6.1 µM

B4: HAKRRLIX5 (peptide)
peptide: HAKRRLIA
HELM: PEPTIDE1{H.A.K.R.R.L.I.[O=C([C@H](CC1CCCC1)N[*:1])[*:2]].[am]}$$$$V2.0; N-terminus assumed
SMILES: CC[C@H](C)[C@H](NC(=O)[C@H](CC(C)C)NC(=O)[C@H](CCCNC(=N)N)NC(=O)[C@H](CCCNC(=N)N)NC(=O)[C@H](CCCCN)NC(=O)[C@H](C)NC(=O)[C@@H](N)Cc1c[nH]cn1)C(=O)N[C@@H](CC1CCCC1)C(N)=O
IC50, kinase assay [11]: 90 µM | IC50, kinase assay [7]: 20 µM

HAKRRLI[Cha]-NH2 (not fully specified, also called HAKRRLIX6; HAKRRLI{CHA}) [HAKRRLIR6]
IC50 [1]: 0.26 µM | IC50 [9]: 250 nM | IC50, kinase assay [7]: 58 µM

B5: HAKRRLIX4 (peptide)
peptide: HAKRRLIA
HELM: PEPTIDE1{H.A.K.R.R.L.I.[O=C([C@H](CC1CCC1)N[*:1])[*:2]].[am]}$$$$V2.0; N-terminus assumed
SMILES: CC[C@H](C)[C@H](NC(=O)[C@H](CC(C)C)NC(=O)[C@H](CCCNC(=N)N)NC(=O)[C@H](CCCNC(=N)N)NC(=O)[C@H](CCCCN)NC(=O)[C@H](C)NC(=O)[C@@H](N)Cc1c[nH]cn1)C(=O)N[C@@H](CC1CCC1)C(N)=O
IC50, kinase assay [7]: 25 µM

{benzoic acid Scaffold III (R1 H, R2 CHEM-US-00026 C5H12N2)}-RLIF (reading uncertain; also: cap structure given only by scaffold parameters) [SCCP 5850 (benzoic acid N-cap-RLIF)]
fold enhancement of activity vs unsubstituted benzoic acid [2]: 9 fold

B6: HAKRRLIX3 (peptide)
peptide: HAKRRLIA
HELM: PEPTIDE1{H.A.K.R.R.L.I.[O=C([C@H](Cc1ccsc1)N[*:1])[*:2]].[am]}$$$$V2.0; N-terminus assumed
SMILES: CC[C@H](C)[C@H](NC(=O)[C@H](CC(C)C)NC(=O)[C@H](CCCNC(=N)N)NC(=O)[C@H](CCCNC(=N)N)NC(=O)[C@H](CCCCN)NC(=O)[C@H](C)NC(=O)[C@@H](N)Cc1c[nH]cn1)C(=O)N[C@@H](Cc1ccsc1)C(N)=O
IC50, kinase assay [7]: 25 µM

B7: HAKRRLIX7 (peptide)
peptide: HAKRRLIA
HELM: PEPTIDE1{H.A.K.R.R.L.I.[O=C([C@H](Cc1cccnc1)N[*:1])[*:2]].[am]}$$$$V2.0; N-terminus assumed
SMILES: CC[C@H](C)[C@H](NC(=O)[C@H](CC(C)C)NC(=O)[C@H](CCCNC(=N)N)NC(=O)[C@H](CCCNC(=N)N)NC(=O)[C@H](CCCCN)NC(=O)[C@H](C)NC(=O)[C@@H](N)Cc1c[nH]cn1)C(=O)N[C@@H](Cc1cccnc1)C(N)=O
IC50, kinase assay [7]: 29 µM

B8: SCCP 5852 (Imidazole N-cap ligated to RLIF) (peptide)
peptide: {2‑(3-fluorophenyl)‑1H‑imidazole‑4‑carbonyl}-RLIF
notes: also called 2-(3-fluorophenyl)-1H-imidazole-4-carboxamide
IC50 [5]: 67 µM | IC50 [3]: 34.3 µM

B9: SAKRRL3TA G-OH (peptide)
peptide: SAKRRLXG
HELM: PEPTIDE1{S.A.K.R.R.L.[O=C([C@H](Cc1ccsc1)N[*:1])[*:2]].G}$$$$V2.0; N-terminus assumed
SMILES: CC(C)C[C@H](NC(=O)[C@H](CCCNC(=N)N)NC(=O)[C@H](CCCNC(=N)N)NC(=O)[C@H](CCCCN)NC(=O)[C@H](C)NC(=O)[C@@H](N)CO)C(=O)N[C@@H](Cc1ccsc1)C(=O)NCC(=O)O
notes: C-terminal free acid (-OH); also called SCCP 5814
IC50 [9]: 430 nM
